Test results published in the supplement of paper PMC9170038.

Test system: MS2 coat protein
Test: apparent KD of MS2 coat protein; designed switch direction (-1 OFF switch, 1 ON switch): -1; higher = weaker reporter binding
How it was run: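 Stalled E. coli RNA polymerase transcribed designed RNA switches on Illumina chips, which were then titrated with SNAP-549-labelled MS2 coat protein, doubling from 0.7 or 1.5 nM to 3 µM. Steps lasted from 0.8–1.5 h at the lowest concentration to 10–20 min at the highest. The apparent KD is each design's median over clusters of curve-fitted normalised fluorescence.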

[1] = Eterna round: R95, input ligand: microRNA oligo, concentration not stated
[2] = Eterna round: R95, input ligand: FMN 200 uM
[3] = Eterna round: R95, input ligand: none
[4] = input ligand: microRNA oligo, concentration not stated

Sequence | apparent KD of MS2 coat protein [1] [nM] | apparent KD of MS2 coat protein (input ligand: FMN 200 uM) [nM] | apparent KD of MS2 coat protein (input ligand: none) [nM] | apparent KD of MS2 coat protein [4] [nM] | other results
UUAUACGCUGAGGAUAUUAUCACUGAGAGGUGAUGAGAAGGCGGUACAUGAGGAUCACCCAUGUCUAUGGGCAG [Ex-6 Malc#22] (puzzle: Exclusion 6) | 237 |  |  |  | 
UUAUAUAGGUAGGAUAUCGAUUUUAAUUAAUAUCGAGAAGGGUCAACAUGAGGAUCACCCAUGUCAGCAUGUAU [LRO-Excl6-04-Rocketman] (Eterna round: R97, puzzle: Exclusion 6) |  | 60 | 55.1 |  | 
UUAUAUAGUGUGAGGAUAUGCUGGUCCUUGGAUCAGCAGAAGGCACAUGAGGAUCACCCAUGUAGUUAAUUUUA [JL bmx4 3.03] (puzzle: Brourd's mod of Exclusion 4) | 25.2 |  |  |  | apparent KD of MS2 coat protein [2]: 118 nM; apparent KD of MS2 coat protein [3]: 29 nM
UUAUCCGCUGAGGAUAUUAUCACUGAGAGGUGAUGAGAAGGCGGUACAUGAGGAUCACCCAUGUCUAUGGGCAG [Ex-6 Malc#23] (puzzle: Exclusion 6) | 228 |  |  |  | apparent KD of MS2 coat protein [2]: 584 nM; apparent KD of MS2 coat protein [3]: 864 nM
UUAUUAUAUGUAGGAUAUGCAUAUUAUUAUUAUGCAGAAGGACAUGAGGAUCACCCAUGUAUAUUAUUAUUAUAUAUUAUAUGU [Title] (Eterna round: R96, puzzle: Exclusion NG 1) |  |  |  | 33.8 | 
UUAUUAUAUGUAGGAUAUGCAUAUUAUUAUUGUGCAGAAGGACAUGAGGAUCACCCAUGUAUAUUAUUAUUAUAUAUUAUAUAU [Title] (Eterna round: R96, puzzle: Exclusion NG 1) |  |  |  | 26.5 | 
UUAUUAUAUGUAGGAUAUGCAUAUUGUUGUUAUGCAGAAGGACAUGAGGAUCACCCAUGUAUAUUAUUGUUAUAUAUUGUAUAU [Title] (Eterna round: R96, puzzle: Exclusion NG 1) |  |  |  | 18.2 | 
UUAUUAUAUGUAGGAUAUGCAUAUUGUUGUUAUGCAGAAGGACAUGAGGAUCACCCAUGUAUAUUAUUGUUGUGUAUUAUAUAU [Title] (Eterna round: R96, puzzle: Exclusion NG 1) |  | 57.1 | 33 | 29.1 | 
UUAUUUAGGUAGGAUAUCGAUAUUAAUUAUUAUCGAGAAGGGUCUACAUGAGGAUCACCCAUGUUAGCAUGUUU [LRO-Excl6-09-Rocketman] (Eterna round: R97, puzzle: Exclusion 6) |  | 23.3 | 29.3 |  | 
UUCAUGUAAGGAUAUCGUGCAAGUUUCAAAAGAGGCUUGUGCGAGAAGGUACAUGAGGAUCACCCAUGUAGGUU [Omei Ex4 B9] (Eterna round: R97, puzzle: Exclusion 4) |  | 86.9 | 754 |  | 
UUCCGGUGAGGAUAUUGCACGGUGGGAGAGAGCGCCACUGUCAAGAAGGUACAUGAGGAUCACCCAUGUGAGUA [Eternabot (L1) Solution 24] (Eterna round: R97, puzzle: Exclusion 4) |  | 21.1 | 25.1 |  | 
UUCCUACAUGAGGAUCACCCAUGUCAGGAUAUCUCCUCACCGCGAAUGGGCAGUGAAUAGAGAAGGGACAGGAA [Aner] (puzzle: Exclusion 1) | 13.5 |  |  |  | 
UUCCUCGUUGUGAGGAUAUCGUCCGUGUUUUGUUACGAGAAGGCACAUGAGGAUCACCCAUGUUAUUUGAUUUU [JR_BMOE4_Sub074] (puzzle: Brourd's mod of Exclusion 4) | 36.8 |  |  |  | apparent KD of MS2 coat protein [2]: 83.6 nM; apparent KD of MS2 coat protein [3]: 37.9 nM
UUCCUCGUUGUGAGGAUAUCGUCCUAUUUUUGUUACGAGAAGGCACAUGAGGAUCACCCAUGUUACUUGAUGUU [JR_BMOE4_Sub071] (Eterna round: R96, puzzle: Brourd's mod of Exclusion 4) |  | 188 | 26 | 21.1 | 
UUCCUCGUUGUGAGGAUAUCGUCCUAUUUUUGUUACGAGAAGGCACAUGAGGAUCACCCAUGUUACUUGAUGUU [JR_BMOE4_Sub071] (puzzle: Brourd's mod of Exclusion 4) | 21.2 |  |  |  | 
UUCGUGCAGCUUUGCUGUACGCGUACAUGAGGAUCACCCAUGUAGGAUAUGGUAGGCUUUGCUUACUAGAAGGAUAUGGUGAGC [JL EXNG3 1.33] (Eterna round: R96, puzzle: Exclusion NG 3) |  | 85.6 | 36.1 | 37.2 | 

Sequence | apparent KD of MS2 coat protein [1] [nM] | apparent KD of MS2 coat protein (input ligand: FMN 200 uM) [nM] | apparent KD of MS2 coat protein (input ligand: none) [nM] | apparent KD of MS2 coat protein [4] [nM] | other results
UUCUUGGCAGGAUAUGCUCUCUUAGACAUGAGGAUCACCCAUGUGUUCAUUCUUUCUUUUGCAGAAGGGCCUUAAU [JR_E5_Sub045] (puzzle: Exclusion 5) | 52.6 |  |  |  | 
UUCUUGGCAGGAUAUGCUUUUUUAGACAUGAGGAUCACCCAUGUGUUUAUUUUUUUUUUUGCAGAAGGGCCUUAAU [JR_E5_Sub043] (puzzle: Exclusion 5) | 26.9 |  |  |  | 
UUGAGUCGGAAGGAUAUGCGAGCCGCCGGGUCAGCAGAAGGUCCGACAUGAGGAUCACCCAUGUUGGGCGAGGA [EX6 B.10] (Eterna round: R97, puzzle: Exclusion 6) |  | 351 | 25.2 |  | 
UUGAUGUCAUCAGGAUAUAGUAUUUAAGACAUAUCUUCUUUCAAACAUGAGGAUCACCCAUGUCGCUAGAAGGGAUUAUUGAUU [JR_ExcNG2_Sub083] (Eterna round: R96, puzzle: Exclusion NG 2) |  |  |  | 11.4 | 
UUGAUUGGUGUAGGAUAUGUAUGAGGAUCACCCAUUAAUAAAUUUUAACCACGAGGAUCACCCGUGUAGAAGGACAUUGGUCAA [pwkr exNG2 2xF5 1xFMN.19] (Eterna round: R96, puzzle: Exclusion NG 2) |  | 33.1 | 38.4 | 23.5 | 
UUGAUUGGUGUAGGAUAUGUAUGAGGAUCACCCAUUAAUAAAUUUUAACCACGAGGAUCACCCGUGUAGAAGGACAUUGGUUAU [pwkr exNG2 2xF5 1xFMN.21] (Eterna round: R96, puzzle: Exclusion NG 2) |  | 51.9 | 59.3 | 37.8 | 
UUGCCGCAAGGAUAUGCAGACAAGUACAAUACGUGUCUCGGACUUGAGGAUCACCCAAGUAGAAGGCUUUUUAU [LRO-Excl2-14-mod _r4_621 by salish99] (Eterna round: R97, puzzle: Exclusion 2) |  | 23.7 | 21.4 |  | 
UUGGAACGAGGAUAUCGAUGGUGGAACAUGAGGAUCACCCAUGUAUGAGAUAGUGUAGUUCGAGAAGGCGUUAAGU [JR_E5_Sub054] (puzzle: Exclusion 5) | 40.3 |  |  |  | apparent KD of MS2 coat protein [2]: 24.1 nM; apparent KD of MS2 coat protein [3]: 48.9 nM
UUGUAUAUCUAUGGGAGUAACAUGAGGAUCACCCAUGUAUGUCUUGUUUUUUGUUCGUCAUAGGCCAAUUGAAUGGU [JR_SV3TOV1_Sub026] (puzzle: Sensor v3, turn-off variant 1) | 34.5 |  |  |  | apparent KD of MS2 coat protein [2]: 25.9 nM; apparent KD of MS2 coat protein [3]: 28.9 nM
UUGUGAGGUGUAGGAUAUUGUUGUUGUUUUUAGCGAGAAGGACAUGAGGAUCACCCAUGUGUCGUGUUUUUUUUUUUUUUUUUU [simply blue] (Eterna round: R96, puzzle: Exclusion NG 1) |  | 78.9 | 59.1 | 93.5 | 
UUGUUACAUGAGGAUCACCCAUGUGAGGAUAUGGUUCAGUAAUGUAAUGUAAAGUACUCCAGAAGGCACAUGUU [1st #27] (Eterna round: R97, puzzle: Exclusion 1) |  | 1510 | 809 |  | 
UUGUUAUAUGUAGGAUAUGCAUAUUAUUAUUAUGCAGAAGGACAUGAGGAUCACCCAUGUAUAUUAUUAUUAUAUAUUAUAUAU [Title] (Eterna round: R96, puzzle: Exclusion NG 1) |  |  |  | 22.4 | 
UUGUUAUAUGUAGGAUAUGCGUAUUAUUAUUAUGCAGAAGGACAUGAGGAUCACCCAUGUGUAUUAUUAUUAUAUAUUAUAUAU [Title] (Eterna round: R96, puzzle: Exclusion NG 1) |  | 41.3 | 21.1 | 15.5 | 
UUGUUAUGUGUAGGAUAUGCAUAUUAUUAUUAUGCAGAAGGACAUGAGGAUCACCCAUGUGUAUUGUUAUUAUAUAUUAUAUAU [Title] (Eterna round: R96, puzzle: Exclusion NG 1) |  |  |  | 17.1 | 
UUGUUAUGUGUAGGAUAUGCGUAUUAUUAUUAUGCAGAAGGACAUGAGGAUCACCCAUGUGUAUUAUUAUUAUAUAUUAUAUAU [Title] (Eterna round: R96, puzzle: Exclusion NG 1) |  | 41.2 | 22 | 20.4 | 
UUGUUAUGUGUAGGAUAUGCGUAUUAUUAUUAUGCAGAAGGACAUGAGGAUCACCCAUGUGUAUUGUUAUUAUAUAUUAUAUAU [Title] (Eterna round: R96, puzzle: Exclusion NG 1) |  | 32.1 | 21.9 | 16 | 
